# B1: Nibrin (Homo sapiens), O60934 (parent)
# chain: MWKLLPAAGPAGGEPYRLLTGVEYVVGRKNCAILIENDQSISRNHAVLTANFSVTNLSQTDEIPVLTLKDNSKYGTFVNEEKMQNGFSRTLKSGDGITFGVFGSKFRIEYEPLVACSSCLDVSGKTALNQAILQLGGFTVNNWTEECTHLVMVSVKVTIKTICALICGRPIVKPEYFTEFLKAVESKKQPPQIESFYPPLDEPSIGSKNVDLSGRQERKQIFKGKTFIFLNAKQHKKLSSAVVFGGGEARLITEENEEEHNFFLAPGTCVVDTGITNSQTLIPDCQKKWIQSIMDMLQRQGLRPIPEAEIGLAVIFMTTKNYCDPQGHPSTGLKTTTPGPSLSQGVSVDEKLMPSAPVNTTTYVADTESEQADTWDLSERPKEIKVSKMEQKFRMLSQDAPTVKESCKTSSNNNSMVSNTLAKMRIPNYQLSPTKLPSINKSKDRASQQQQTNSIRNYFQPSTKKRERDEENQEMSSCKSARIETSCSLLEQTQPATPSLWKNKEQHLSENEPVDTNSDNNLFTDTDLKSIVKNSASKSHAAEKLRSNKKREMDDVAIEDEVLEQLFKDTKPELEIDVKVQKQEEDVNVRKRPRMDIETNDTFSDEAVPESSKISQENEIGKKRELKEDSLWSAKEISNNDKLQDDSEMLPKKLLLTEFRSLVIKNSTSRNPSGINDDYGQLKNFKKFKKVTYPGAGKLPHIIGGSDLIAHHARKNTELEEWLRQEMEVQNQHAKEESLADDLFRYNPYLKRRR
# Variants of: B1
# Conditions: with pk3cb_human PIK3CB
row,effect of a mutation on the interaction,Variant
1,decreasing interaction,K653A;L654A;L655A;L656A
2,decreasing interaction,S661A;L662A;V663A

# Source: IntAct's records for PubMed 20368419
